# Measurements: the DeepSol protein solubility set
# Experiment: soluble on expression in E. coli; label from the status in PepcDB or PDB records
row,Sequence,soluble on expression in E. coli
1,MIGAVNSVEAVITSIQGLSGSPEDLSALHDLLRGAQDSLRAEPGVNFSTLDQLDASKHSLGYLYFLEVLTCGPVSKEKAAYEIPIIARFINSCDAGQIRLASYKFVSLCKILKDHVIALGDPLRGVGPLLNAVQKLQVSSKRLTALHPDVLQLCLQAKSYKSGFSILSDDIVEIDQPRDFFLYSYYGGMICIGLKRFQKALELLYNVVTAPMHQVNAIALEAYKKYILVSLIHNGQFTNTLPKCASTAAQRSFKNYTGPYIELGNCYNDGKIGELEALVVARNAEFEEDKNLGLVKQAVSSLYKRNILRLTQKYLTLSLQDIANMVQLGNAKEAEMHVLQMIQDGQIHALINQKDGMVRFLEDPEQYKSSEMIEIMDSVIQRTIGLSKNLLAMDESLSCDPLYLGKVGRERQRYDFGDDFDTVPQKFSM,soluble
2,MNKYDIAVIGGGMVGAAVAVGFAKQGRSVVVVEGAEPKAFDAAQALDVRVSAISHQSVKLLESLDAWSAIEAMRVCPYRRLETWEHPECRTRFHSDELSLDQLGYIVENRLIQLGLWQAFAQFDNLTVKCPERLKDIDFNDGNRITLESGEQFDANWIIGADGANSKVRQLAGIGVTAWDYRQHCMLINVKTELPQQDITWQQFTPSGPRSFLPLCSLTEDGQEVGQGSLVWYDSPKRIKQLCAMTKPQLREEIVRHFPKELGDIEVLQFGSFPLTRRHAQSYSHRGCVLVGDSAHTINPLAGQGVNLGFKDVDVLLSVTQGQDELTDALLAKYERTRRPDNLLMQTGMDFFYKGFSNDLGPLKFARNAALKLAENSGPIKAQVLKYALGMLEHHHHHH,not soluble
3,MSLHELDYYLIELDNPFCSDLPKIIAVHDKNLRYTSMGRGSSIEMRTITAYGEILERYCLWNQTPDLTSAFCADKPMLSPEEQVLPISESIDDREVEWKSYYSLSNHQRIFIHRPINSACYSNYFTQTSNGSAVHETEELAINSALEELIERHLFNIFWLFESNILEKSFSSDEIEHAIESGWRLDFYEIRDYKSCTICVMINRSDRRFSKGAMTVGLSFGSDSDACIRAYTECLQTLEAYLAFDKKVNNASLYYLSGKGTSQWQRKINTSLSSTPLSITKSVFEKYSPYMFTEKTNNDLVYCEVVMPHLIPLQYEHERDIRVNPDLLGHLTHRNMCYPIGEGHHHHHH,not soluble
4,MQIEKIRDQKMKAVRVKKLSKLADEITINISGAKNALLHLIFASLIPDTKTKFTNVPITLLDYKGAKEILENVGAKVIEKDEEVTIDTAAISNETLELCGEMTSKTRCSLMLLGSLLKKKGRVKIGFPGGCSFSEKRPFDIHLNGLEALGAEVKLADDHIEVIYKEEKNAEFKMPFPSVGATMNLLMYAVTGNSEIVLENVALEPEVVTLIDYLNQCGANIDFDADSRKIKILGIMRLNGCEFEIIFDRIQAMTYAAMAYLYKTNVTITNINTQDTYSIKKPLEKLTNAGAKWEYNQANRSIKFFGKDSCIKGVDIIAAPFPHFPTDLQPIYAVMLFMANSSSTIQDTVYPERINYVYQIRKMGFNISIDNTLIKINPLKNLNDIRPAVMSVKDLRAGMACLMAGSLLDEFSTINNAHQIFRGYNNLIENMSHFMRIEILNDNV,not soluble
5,MSQVSIIIPTLNEAASLGRTLRQLTLLNPPAKEVIVVDGGSEDETIAIAKQNFESFRQATGVQVIFCERRGRSVQMNYGALSATGDILCFLHADTWVPDDLVAVIEKTLAETKVSCGGFISLMTGSQTTRWGISLHNYLKTYYAPLLFKPHLFFQGLRLLFGDQVMFCRRNDFWDCGGFNEELPIMEDGDLCLKLVQKGRIALVNRIVQSSDRRVARWGSWKATAIYLYIGVLWGIGVDANYLKQFYQDIRLEHHHHHH,soluble
6,AEIYNKDGNKLDLYGKIDGLHYFSDDKDVDGDQTYMRLGVKGETQINDQLTGYGQWEYNVQANNTESSSDQAWTRLAFAGLKFGDAGSFDYGRNYGVVYDVTSWTDVLPEFGGDTYGSDNFLQSRANGVATYRNSDFFGLVDGLNFALQYQGKNGSVSGEGATNNGRGALKQNGDGFGTSVTYDIFDGISAGFAYANSKRTDDQNQLLLGEGDHAETYTGGLKYDANNIYLATQYTQTYNATRAGSLGFANKAQNFEVAAQYQFDFGLRPSVAYLQSKGKDLNGYGDQDILKYVDVGATYYFNKNMSTYVDYKINLLDDNSFTRSAGISTDDVVALGLVYQF,soluble
7,MSKWLNVGKIVNTHGVRGEVRVLSTTDFEDDRFSSGKTLYVMRPNQNERVAVTVASHRKHKNFDLLCFEGYPSINDVEAFKGGRLQVPIEDRPELGEGEFFYHEIIGCSVVTIAGEELGKVKEILSPGANDVWVVQCRRGGKDLLIPYIEQVVKQVDLEKQQITIEPMEGLLEAAALEHHHHHH,soluble
8,MSLQNADRLSREYVAGVNFLLSNQQDKAVDLFLEMLKEDSSAFEAHLTLGNLFRSRGEVERAIRIHQSLMESASLTFDQRLLATQQLGRDYMSAGLYDRAENMFAQLVNEKDFQENAFQSLLTIYQSTSDWKKAIDIAEKLVKSGKHDLREKIAHFYCELALQEMSGDDLDEAIGYLNKAVQADKNCARVSIMLGRLFMARQEYNKAADALKSVLEQDKQLVSEVLPILQECYQHQNQIDEWENFLKRCVEEDCGATAELLLADIIEQQKGHEVAQTYINHRLERHPTMRLFYRLMDYHLAEAEEGRAKESIILLRDMVGEQIRTKPNYRCHKCGFTSHSLYWHCPSCRSWDSIKPIRGLDGQEGHHHHHH,not soluble
9,SMPSQQRVKRWGFSFDEILKDQVGRDQFLRFLESEFSSENLRFWLAVQDLKKQPLQDVAKRVEEIWQEFLAPGAPSAINLDSHSYEITSQNVKDGGRYTFEDAQEHIYKLMKSDSYARFLRSNAYQDLLLAKKKGKSLAGKRLTGLMQ,soluble
10,MKNKDSLHVSRRRFLAQLGGLTVAGMLGPSLLTPRSARAADAVAPGAATKEGILTGSHWGAIRATVVDGRFVAAKPFEQDKYPSKMIAGLPDHVHNAARIRYPMVRVDWMRKGHQSDTSQRGDNRFVRVSWDEALDLFYQELERVQKTYGPSALLTASGWQSTGMFHNASGMLARAIALHGNSVSTGGDYSTGAAQVILPRVVGSMEVYEQQTSWPLVLQNSKTIVLWGSDMVKNQQANWWCPDHDVYQYYEQLKEKVASGAISVISIDPVVTSTHDYLGRDKVKHIAINPQTDVPLQLALAHTLYSEKLYDKNFLDNYCVGFDQFLPYLLGEKDGQPKDAAWAEKLCGIDADTIRALARQMAGDRTQIIAGWCVQRMQHGEQWSWMVVVLAAMLGQIGLPGGGFGFGWHYNGAGTPGRKGIILSGFSGSTTVPPVHDSTDYKGYSSTIPIARFMDAILEPGKIINWNGKSVKLPPLKMCVFAGTNPFHRHQQINRIIEGWRKLETVIAIDNQWTSTCRFADIVLPATTQFERNDLDQFGNHSNRGIIAMKQVVSPQFEARNDFDIFRDLCRRFNREAAFTEGLDEMGWLKRIWQEGSQQGKGRGIHLPIFEVFWNQQEYIEFDHPQMFVRHQAFREDPDLEPLGTPSGLIEIYSKTIADMQYDDCQGHPMWFEKIERSHGGPGSQRWPLHLQSVHPDFRLHSQLCESETLRQQYAVGGKEPVFINPQDASARGIRNGDIVRVFNARGQVLAGAVVSDRYAPGVARIHEGAWYDPDKGGDLNALCKYGNPNVLTLDIGTSQLAQATSAHTTLVEIEKYTGPMDNVTAFNGPVEMVAQCEYVPASQGNPHD,not soluble
11,MGSDKIHHHHHHVESLLTAADLHIHTTASDGTASPEAVLSYVATETDLRVIAITDHDTLRGALYARERASHYGIDVIVGCEISTRSGHLLALFIEQPVPAGLSVTETVARIHDQGGMAFAAHPFGMLVPSIGRRHLLGPERTDVDWMQLDGIEVFNASLWNPMNNERAARCAQRWGLTHIGGSDAHNLTMIGAGRTLFAGTGAADLRRALQRRATLVHGRYWGWRGVAGVVRERVWRQFGRPVESVS,not soluble
12,FNCLGMSNRDFLEGVSGATWVDLVLEGDSCVTIMSKDKPTIDVKMMNMEAANLAEVRSYCYLATVSDLSTKAACPTMGEAHNDKRADPAFVCRQGVVDRGWGNGCGLFGKGSIDTCAKFACSTKAIGRTILKENIKYEVAIFVHGPTTVESHGNYSTQVGATQAGRFSITPAAPSYTLKLGEYGEVTVDCEPRSGIDTNAYYVMTVGTKTFLVHREWFMDLNLPWSSAGSTVWRNRETLMEFEEPHATKQSVIALGSQEGALHQALAGAIPVEFSSNTVKLTSGHLKCRVKMEKLQLKGTTYGVCSKAFKFLGTPADTGHGTVVLELQYTGTDGPCKVPISSVASLNDLTPVGRLVTVNPFVSVATANAKVLIELEPPFGDSYIVVGRGEQQINHHWHKSGS,soluble
13,TTSRQIGSDDNTSLGTNISIDGMPLSNDAMRTQLYGITGVDRSDLYVADRTVTRRTGMNAGIDLRTISTDHIETIEIERGISSVGEGNLSSGAIRIRTKQGSAPLQMRVKADPLSKLAYVGKGFKVSKRGASIHTGIDFLHNKPDVREVLDSYKRSTLHARYSDQLNYGDMIVDLGIGLMQTFSIQDSKSDQLVNEYEETYNSKYLRSSLSFDAKVRFSGSWLNSIDWLLSADYTSDLLKRKKYYISTSGPKSMPVATESGEHEGVFLPSAYYAYYEIDNQPLYFFSRFKANTDINFTERHHHHLLYGLEARSSKNIGRGVVADPTRPPYPGNNSYIRPRPNYNIPASVYAAFFVEDRASVEWGANRLGIQAGLRATHLFNLPSSYALSRKMLIEPRIKANWQYRAEHLSINLRAGYGMENKLPTLDHLYPDKIYRDFMVLNAYMQNPELDHLITYTYIHNPENPAIRENRNVKKEIGIDMTYKRFDFSLTLFHEESRRGFEYFDSYLPIAFDRYTKLIAPLPPGHKPQKEDYIQEHHKDFFVIPTVQNSAKVVKRGIEFRLRTPYLKAINTQVEVNGAYYHTLYASGIPIMFRPIVSEYEQALYPYVGYYEGSLHKHYQRFNTNVWVNTHFPRYKLIFTSFFQIIWHDASYRGHEESEFPYAYMDLDGVVHPTSKAAILEAAATNDILKYLSRERTELYYRATYKPISLRINFKATKEFSDRMRLAFFVDNIIDINPKYKQANNTTERDWSIPYFGIETTFTL,not soluble
14,YNGQSETSQQPETPVFNTLPMMGKASPVSLGVPSEATANNGQQQQVQEQRRRINAMLQDYELQRRLHSEQLQFEQAQTQQAAVQVPGIQTLGTQSQ,soluble
15,MVLSCRVVDCGGLKLKENQTLLLLVSTIHNSSEVGKLSIDAEEKRSKEWLEMPCAEGMLSLKLTLWQDLLKGINSVFHGQVRVDVDENWKSGPAKWFYLRSKANEDGEGGEDGGDIGDATVKVTYQIDHILRMQVYKPLLDLLFLAGDVQPLTASLVAVIEALPKVELGPVSRSLVELMAQSDRIRPVLSSLYVNSILKCQDENTLFRGQSLSGKMLFEILTTYGKMYLITTLKPVVDKIYKERKNCEVDPARVAVGASLEKNRNNLLVYFQMLFERVTTSSTNCPHLIKQLLYDLRNVVGTHSSRSGVQRLAVSSFVIMRFFAAAILNPKAFEIRKDQPDLRVSRTLLLLSKLLQRLSNCSVSEGPLSSKEIWLNGVFETVTSEQHKSVMASFLDNISLVGDRSEPQKCTVFKFGNLQQVDRSRLAWKKVLHYKKRYVQLTNTHLIWQKDVQCAPKGTVPLSDIKFVNVDNKNIITIVCETMQLQFEAPGGVEATDWLNAIERQRNRAAHEIAETPGEHFFVDAERHVDKIHTLLYKYRETMIEWRDQLQSNVELDEKTAPELLKASYVVEEERQSHKDSLIATLCSTIDVTDAIQLAHTEYEKENKVSRRIDAIITAKKRQKSFSVK,not soluble
16,MGSDKIHHHHHHMKRVVITGMGIVSPFGVGKERNLEGLRETKVTIDRISSFDASNLPVQIAAEVRDFKPEEYINPKLVRRTDRFVHFALVSAKEAVEDAGINFEPYADRTATIIGSGMGGFLTLDSENNKFLSQGPSRVSPFLIPMILIDMASGVVAMEYGLKGPNFSSVSACASSLHAVALGALLIRHGYADVAVVGGTEATIAPLPITGFANMRALSRRNDDPKRASRPFDKDRDGFVMGEGGAVLILEAEEVAKSRGAKILAEIKGVGMTDDAYHFSAPDPEGRGAAEAMKLALKESSLAVEDIDYVSCHATSTPAGDEAELKAIKKVLGEHVKNVAINSSKALIGHLLGAAGASELVLAILQMQNSFVHGMPNLDNPIDEAKGTGLVGKEPVQMEIKNFIKNSFGFGGHNVSIVVGRYES,not soluble
